From US20210214734A1, “METHODS FOR SELECTIVELY INHIBITING MOLECULAR CHAPERONE CLIENTS AND COMPOSITIONS FOR USE THEREOF” (Research Foundation for the State University of New York, priority 2020, published 2021)
Entries after “also recorded” stand apart in the source; their conditions may differ. Where no end group is shown, it is not given here. [ ]: non-standard residue; d: D form. Phe(4-F) = N[C@@H](Cc1ccc(F)cc1)C(=O)O

How the values were obtained:
[1] = target: Human Serum Albumin (HSA) (Homo sapiens, UniProt P02768); test: 19F NMR control for non-specific binding to HSA; conditions: 40 mM A01, A02 with 10 mM HSA
Protocol: (§1) All the NMR experiments have been recorded at 298° K with a Bruker FT NMR Avance III 600-MHz spectrometer equipped with a 5-mm CryoProbe™ QCI^1H/^19F-^13C/^15N-D quadruple resonance, a shielded z-gradient coil, and the automatic sample handling system such as a SAMPLEJET™ brand sampling system with temperature control.
(§2) ^19F NMR experiments are a well-recognized approach to study the interaction between small molecules or peptides and proteins. […] This is due to the large dynamic range defined as the difference of the NMR measured response in the free and protein-bound states. ^19F R2 filter NMR experiments are among the most sensitive techniques for weak binding detection. See Dalvit et al., Journal of American Chemical Society, 125, 7696-7703 (2003). The transverse relaxation rate R2 is a very sensitive parameter for these studies, due to the large Chemical Shift Anisotropy (CSA) of ^19F nucleus and to the large exchange contribution See Dalvit et al., Journal of American Chemical Society, 125, 7696-7703 (2003); the compounds/peptides that interact with the receptor will show a broadening and intensity reduction in their ^19F NMR signal in presence of the protein
(§3) The 5 mM stock solution peptides were prepared in 100% in DMSOd6. Solubility and purity of the peptides in PBS buffer pH 7.4, 10% D2O (for the lock signal) were checked by ^19F and ^1H NMR spectroscopy. 1D ^19F NMR experiments were recorded with proton decoupling with the Waltz-16 scheme during the acquisition period with an acquisition time of 0.95 s, a relaxation delay of 30 s. whereas 1D version of the NOESY (nuclear Overhauser effect spectroscopy) pulse sequence with H2O signal presaturation, a mixing time of 10 ms and a relaxation delay of 30 s was used for ^1H NMR experiments.
(§4) For the binding studies R2 filter experiments were recorded with the Carr-Purcell-Meibom-Gill scheme with a time interval of 23.5 ms between the 180° pulses with a loop of 2, an acquisition time of 0.95 s a D1 of 5 s and a number of scans of 512. All the ^19F chemical shifts are referenced to the CFCl3 signal in water.

full length human Hsp90 = test: 19F NMR R2 filter binding to Hsp90; set-up: 19F NMR signal change in presence of Hsp90 (binding): dose or concentration left out as unconfirmed; conditions: for 19F NMR signal change in presence of Hsp90 (binding): 19F R2 filter, peptides tested individually, A01
Protocol: as §1, §2, §3, §4

Aha1-Hsp90 complex = test: Hsp90 immunoprecipitation, Aha1-Hsp90 complex in HEK293 cells; type: cell-based, human; conditions: 10 μM, 36 hours
Protocol: (§5) Human embryonic kidney (HEK293) and 786-O cells were acquired from the American Type Culture Collection (ATCC). HEK293 cells were grown in Dulbecco's Modified Eagle Medium (DMEM, Millipore-Sigma) and 786-O cells were grown in Roswell Park Memorial Institute (RPMI-1640, Millipore-Sigma) medium supplemented with 10% fetal bovine serum (FBS, Millipore-Sigma) in a CellQ incubator (Panasonic Healthcare) at 37° C. in 5% CO2.
(§6) Cultured cells were seeded 24 h prior to treatment. […]
(§7) Protein extraction from mammalian cells was carried out using methods previously described. See Woodford et al., Cell Reports, 14, 872-884 (2016). For immunoprecipitation, protein lysates were incubated with Hsp90 antibody for 2 h followed by incubation with protein G agarose (Qiagen) for 2 h at 4° C. Immunopellets were washed 4 times with fresh lysis buffer (20 mM Tris (pH7.4), 100 mM NaCl, 1 mM MgCl2, 0.1% NP40, protease inhibitor cocktail (Roche), and PhosSTOP (Roche)) and eluted with 5× Laemmli buffer. Precipitated proteins were separated by SDS-PAGE and transferred to nitrocellulose membranes. Co-immunoprecipitated proteins were detected by immunoblotting with the indicated antibodies, diluted in 5% non-fat dry milk reconstituted in TBST.

Hsp90β-FLAG = Hsp90β-FLAG (Homo sapiens, UniProt P08238); test: Biotinylated peptide streptavidin pulldown of Hsp90β; type: binding; conditions: lysate of HEK293 overexpressing Hsp90β-FLAG
Chain of Hsp90β-FLAG (P08238 whole entry): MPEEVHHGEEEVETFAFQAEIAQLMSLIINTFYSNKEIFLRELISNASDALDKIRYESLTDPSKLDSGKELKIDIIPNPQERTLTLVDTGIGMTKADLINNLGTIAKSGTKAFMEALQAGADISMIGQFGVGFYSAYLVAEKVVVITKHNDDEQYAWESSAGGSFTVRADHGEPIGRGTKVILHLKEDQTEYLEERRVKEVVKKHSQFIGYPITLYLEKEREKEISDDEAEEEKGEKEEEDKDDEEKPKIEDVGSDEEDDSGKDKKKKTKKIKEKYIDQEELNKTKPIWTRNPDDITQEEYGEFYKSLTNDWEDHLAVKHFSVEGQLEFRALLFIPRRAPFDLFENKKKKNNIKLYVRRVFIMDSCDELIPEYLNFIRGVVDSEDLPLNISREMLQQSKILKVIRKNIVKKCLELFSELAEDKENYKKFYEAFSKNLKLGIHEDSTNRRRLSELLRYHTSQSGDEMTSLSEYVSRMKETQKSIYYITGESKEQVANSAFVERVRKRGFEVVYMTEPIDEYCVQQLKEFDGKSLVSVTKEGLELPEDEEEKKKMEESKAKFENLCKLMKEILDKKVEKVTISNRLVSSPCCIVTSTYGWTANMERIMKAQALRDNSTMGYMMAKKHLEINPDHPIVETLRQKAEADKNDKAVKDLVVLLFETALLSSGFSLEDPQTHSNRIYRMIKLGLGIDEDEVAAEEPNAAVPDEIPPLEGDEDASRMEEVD
Protocol: (§8) Total cell lysates prepared as described above were incubated with the indicated amounts of biotinylated peptide at 4° C. for 1 h. Streptavidin agarose beads (ThermoScientific) were added and incubated 1 additional hour with gentle rotation. Bound Hsp90 was detected by immunoblotting as described herein.

Cdk4 = test: Immunoblot of unrelated client Cdk4 in HEK293 cells; type: cell-based, human; conditions: 10 μM, 36 hours, selectivity control
Protocol: as §5, §6, §7

Cdc37 = target: T1, Cdc37 (Homo sapiens, UniProt Q16543); test: 19F NMR R2 filter binding to Cdc37; set-up: dose or concentration left out as unconfirmed
T1 sequence (Q16543 1-378): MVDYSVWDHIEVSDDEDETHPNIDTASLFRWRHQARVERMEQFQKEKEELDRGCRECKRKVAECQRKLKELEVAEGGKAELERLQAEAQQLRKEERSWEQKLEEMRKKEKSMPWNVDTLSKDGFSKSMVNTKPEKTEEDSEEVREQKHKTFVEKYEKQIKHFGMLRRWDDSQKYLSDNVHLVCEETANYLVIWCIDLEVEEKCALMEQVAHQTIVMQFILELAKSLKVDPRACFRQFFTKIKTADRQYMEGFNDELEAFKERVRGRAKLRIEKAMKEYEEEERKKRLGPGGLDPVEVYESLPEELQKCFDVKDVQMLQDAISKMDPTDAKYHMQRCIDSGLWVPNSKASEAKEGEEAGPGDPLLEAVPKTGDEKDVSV
Protocol: as §1, §2, §3, §4

c-Abl-Hsp90 interaction = test: Hsp90 immunoprecipitation, c-Abl association in HEK293 cells; type: cell-based, human; conditions: 10 μM, 36 hours, IP of endogenous Hsp90
Protocol: as §5, §6, §7

c-Src = test: Immunoblot of unrelated client c-Src in HEK293 cells; type: cell-based, human; conditions: 10 μM, 36 hours, selectivity control
Protocol: as §5, §6, §7

Hsp90α-FLAG = Hsp90α-FLAG (Homo sapiens, UniProt P07900); test: Biotinylated peptide streptavidin pulldown of Hsp90α; type: binding
Protocol: as §8

Akt = test: Immunoblot of unrelated client Akt in HEK293 cells; type: cell-based, human; conditions: 10 μM, 36 hours, selectivity control
Protocol: as §5, §6, §7

Aha1 [2] = target: Aha1 (Homo sapiens, UniProt O95433); test: 19F NMR R2 filter binding to Aha1; conditions: cAbl peptides at 10 mM
Chain of Aha1 (Homo sapiens, UniProt O95433) (O95433 whole entry, species assumed): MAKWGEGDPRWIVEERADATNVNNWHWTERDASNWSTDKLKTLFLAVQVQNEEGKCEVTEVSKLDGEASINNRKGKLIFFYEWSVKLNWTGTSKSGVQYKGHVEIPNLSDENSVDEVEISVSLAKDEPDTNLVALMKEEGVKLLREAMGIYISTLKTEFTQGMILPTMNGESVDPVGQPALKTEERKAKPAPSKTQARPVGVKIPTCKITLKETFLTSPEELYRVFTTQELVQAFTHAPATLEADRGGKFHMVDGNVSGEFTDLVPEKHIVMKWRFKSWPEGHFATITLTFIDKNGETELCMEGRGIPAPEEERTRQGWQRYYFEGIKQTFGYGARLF
Protocol: as §1
(§9) ^19F NMR experiments are a well-recognized approach to study the interaction between small molecules or peptides and proteins. […] This is due to the large dynamic range defined as the difference of the NMR measured response in the free and protein-bound states. ^19F R2 filter NMR experiments are among the most sensitive techniques for weak binding detection. […]
as §3, with “Solubility and purity of the peptides in PBS buffer pH 7.4, 10% D2O (for the lock signal) were checked by ^19F and ^1H NMR spectroscopy.” left out
(§10) For the binding studies R2 filter experiments were recorded with the Carr-Purcell-Meibom-Gill scheme with a time interval of 23.5 ms between the 180° pulses with a loop of 2, an acquisition time of 0.95 s a D1 of 5 s and a number of scans of 512. […]

c-Abl = c-Abl protein level by immunoblot in treated HEK293 cells; type: cell-based, human; conditions: 10 μM A01 or A02 with and without TAT, 36 hours
Protocol: as §5, §6, §7

GR:Hsp90 = test: GR dissociation from Hsp90 in 786-O cells; type: cell-based
Protocol: as §5
Cultured cells were seeded 24 h prior to treatment. Peptides were added to cells at 50% confluency at the indicated concentrations and incubated for 24 h, followed by protein extraction as described below.
as §7

[3] = test system: Hsp90 chaperone complexes (Hsp90, Cdc37, Aha1); test: 19F NMR binding to proteins of the Hsp90 chaperone system, single and mixed peptides
Protocol: as §1, §9
as §3, with “Solubility and purity of the peptides in PBS buffer pH 7.4, 10% D2O (for the lock signal) were checked by ^19F and ^1H NMR spectroscopy.” left out
as §10

Human Serum Albumin = target: T2, Human Serum Albumin (human, UniProt P02768 25-609); test: 19F NMR
T2 construct: also called HSA

Aha1 [4] = target: T3, Aha1 (UniProt O95433 1-338, limits assumed); test: 19F NMR R2 filter
T3 construct: Protein used in the 19F NMR experiments
T3 sequence (O95433 whole entry): as the sequence (O95433 whole entry, species assumed) above

In the case of “LGGGQF(F)GEVYGGVAVKTLGGGEFLDEAAVMK (LGGGQ[Phe(4-F)]GEVYGGVAVKTLGGGEFLDEAAVMK) [A01, F(F) = 4-Fluoro-L-phenylalanine]”, the “binding interaction with HSA by 19F NMR” value [1] is reported as “neither A01 nor A02 showed binding interaction with HSA”, the “binding interaction with HSA by 19F NMR” value ([1]; listed as AblO1) is reported as “do not interact with HSA” and the “binding to Hsp90 when A01 and A02 are mixed” value (full length human Hsp90; 19F NMR, peptides mixed) is reported as “continue to bind to Hsp90 even when they are mixed”. The “19F NMR signal change in presence of Hsp90 (binding)” value (full length human Hsp90) was “decrease in the presence of Hsp90, indicating peptide-protein binding”, the Aha1-Hsp90 complex formation (Aha1-Hsp90 complex) was “decreased Aha1-Hsp90 complex formation” and the “binding to Hsp90β in pulldown” value (Hsp90β-FLAG) was “binds with higher affinity to both isoforms of Hsp90”. The “Cdk4 stability or activity” value (Cdk4) was “neither the related kinase c-Src nor the client kinases Cdk4 or Akt showed a defect in stability or activity”, the “binding to Cdc37 by 19F NMR” value (Cdc37) was “showed the ability to bind Cdc37” and the “dissociation of c-Abl from Hsp90” value (c-Abl-Hsp90 interaction) was “dissociation of c-Abl from Hsp90”. For the same molecule, the “c-Src stability or activity” value (c-Src) was “neither the related kinase c-Src nor the client kinases Cdk4 or Akt showed a defect in stability or activity”, the Hsp90 isoform specificity (Hsp90α-FLAG; Hsp90α vs Hsp90β, biotinylated peptide pulldown) was “neither peptide demonstrates isoform specificity” and the “binding to Hsp90α in pulldown” value (Hsp90α-FLAG; biotinylated peptide, lysate of HEK293 overexpressing Hsp90α-FLAG) was “binds with higher affinity to both isoforms of Hsp90”. The “Akt stability or activity” value (Akt) was “neither the related kinase c-Src nor the client kinases Cdk4 or Akt showed a defect in stability or activity”, the “binding to Aha1 by 19F NMR” value (Aha1 [2]) was “but not Aha1” and the c-Abl protein levels (c-Abl) was “decrease of c-Abl protein levels”.

With “YAGYDSSVPDSTWRIMTTLNMGGF(F)PEMLA (YAGYDSSVPDSTWRIMTTLNMGG[Phe(4-F)]PEMLA) [GR-02, glucocorticoid receptor mimic peptide]” the “GR dissociation from Hsp90” value (GR:Hsp90) was “showed GR dissociation from Hsp90”, the “19F NMR signal change in presence of Hsp90 (binding)” value (full length human Hsp90) was “bound to all of the tested proteins” and the “binding to Cdc37 by 19F NMR” value (Cdc37) was “highest effect on Cdc37; also recorded: binding effect is higher on CDC37”. For the same molecule, the “binding to members of the Hsp90 chaperone complex by 19F NMR” value ([3]; Hsp90, Cdc37, Aha1) was “binds to all the protein”, the “competition among peptides when mixed (19F NMR signal variation vs single peptide)” value ([3]; peptides mixed together and added to protein solution) was “No significant difference” and the “binding to Aha1 by 19F NMR” value (Aha1 [2]) was “bound to all of the tested proteins”.

B1: A01 (peptide)
peptide: LGGGQ[Phe(4-F)]GEVYGGVAVKTLGGGEFLDEAAVMK
notes: also called peptide A01; Abl01
B1: no binding (tested: 40 mM A01 with 10 mM HSA) (Human Serum Albumin); no binding (tested: 10 mM of each cAbl peptide) (Aha1 [4]).

B2: B-Raf-01 (peptide)
peptide: GYSTKPQLAGGGNVTAPTPQG[Phe(4-F)]QHSGS
notes: also called Braf01-pep
B2: no binding (Human Serum Albumin).

B3: B-Raf-02 (peptide)
peptide: FGTVYKGKWGGGG[Phe(4-F)]STKPQLAGGGNVTAPTPQ
notes: also called Braf02-pep
B3: no binding (Human Serum Albumin).

B4: A02 (peptide)
peptide: [Phe(4-F)]GGSPYPGIDLSQVYELLEK
notes: also called peptide A02; Abl02
B4: no binding (tested: 40 mM A02 with 10 mM HSA) (Human Serum Albumin).
